In US20220242939A1 (BIOARCTIC, published 2022):
Non-standard residues stand in square brackets, D forms with d. No end group written: not given here. Ahx = NCCCCCC(=O)O

T1: A199 N-terminal neo-epitope peptide AGQPLQ-Acp-C (SEQ ID NO:51) conjugated to BSA (human, not fully specified (residue 8); printed as AGQPLQ-Acp-C; also: C-terminal Cys conjugated to BSA carrier)
T1 construct: BSA carrier; also called A199-BSA peptide
T1 peptide: AGQPLQ[Ahx]C

T2: L198 N-terminal neo-epitope peptide LAGQPL-Acp-C (SEQ ID NO:52) conjugated to BSA (human, not fully specified (residue 8); printed as LAGQPL-Acp-C; also: C-terminal Cys conjugated to BSA carrier)
T2 construct: BSA carrier; also called L198-BSA peptide
T2 peptide: LAGQPL[Ahx]C

T3: negative control peptide AATVGSLAGQPLQER-Acp-C (SEQ ID NO:53) conjugated to BSA (human, not fully specified (residue 17); printed as AATVGSLAGQPLQER-Acp-C; also: C-terminal Cys conjugated to BSA carrier)
T3 construct: BSA carrier; also called 192-206 BSA-conjugated peptide
T3 peptide: AATVGSLAGQPLQER[Ahx]C


How the values were obtained:
[1] = biological target: T4, recombinant C-terminal ApoE fragment G200-HIS (ApoE-G200-H299-10xHIS) (human, UniProt P02649 218-317); assay: second direct ELISA, G200-HIS coated at 0.1 µM
T4 construct: also called G200-HIS fragment
T4 sequence (P02649 other isoform, or with tags, fused parts or gaps limits assumed): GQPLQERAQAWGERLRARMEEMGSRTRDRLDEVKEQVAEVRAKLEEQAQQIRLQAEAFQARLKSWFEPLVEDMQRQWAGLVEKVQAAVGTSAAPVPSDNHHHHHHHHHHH
Experimental: (§1) The screening was performed according to standard ELISA protocols. Briefly, 1 μg/ml solutions of BSA-conjugated neo-epitope peptides, recombinant C-terminal ApoE fragment, negative control peptide and full-length ApoE were prepared by dilution in PBS. 50 μl/well were added to an ELISA half-area 96 well microtiter plate, the plate was sealed with adhesive sealer and incubated over night at 4° C. After discarding the solution, the plates were blocked with 150 μl/well of protein-free blocking solution (Pierce) for 1 h at room temperature with shake (900 rpm). The plates were washed four times with washing buffer containing 0.28 mM NaH₂PO₄, 2.5 mM Na₂HPO₄, 150 mM NaCl, 0.1% TWEEN®-20 and 0.0075% Kathon CG. Generated recombinant antibodies of interest were serially diluted 3-fold with a starting dilution at 0.5 μg/ml (mixed 1:1 with dilution buffer: PBS with 0.1% BSA and 0.05% TWEEN®-20). An anti-ApoE C-terminal antibody was used as a reference antibody (ApoE E-8 mouse monoclonal, cat. no. sc-393302; Santa Cruz Biotechnology). 50 μl/well were added into the ELISA plates and incubated for 2 h at room temperature with shake (900 rpm). The plates were washed four times as described previously. […] After another wash (as described previously), 50 μl/well of K-Blue® aqueous substrate (Neogen) were added, and the reaction was stopped after 5-15 min with 50 μl/well of 0.5 M […]. The optical density at 450 nm was read using an ELISA reader (Tecan). The optical density was plotted against the antibody concentration to generate concentration-response curves (FIG. 16).
These were added in the same molarity (0.1 μM) to provide an equal number of molecules available for binding by the antibodies (BSA-coupled peptides were coated at 1 μg/ml as before).

[2] = biological target: T4, recombinant C-terminal ApoE fragment …; assay: SPR (Biacore 8K), G200-HIS amine-coupled on CM5, antibody as analyte, bivalent analyte fit (KD1)
[3] = biological target: T5, His-tagged recombinant full-length ApoE4, 10xHIS-ApoE4(1-299) (human, UniProt P02649 19-317); assay: direct ELISA, target coated at 1 ug/ml, antibody in 3-fold dilutions from 500 ng/ml, OD 450 nm
T5 construct: also called ApoE4-FL-HIS
T5 sequence (P02649 other isoform, or with tags, fused parts or gaps limits assumed): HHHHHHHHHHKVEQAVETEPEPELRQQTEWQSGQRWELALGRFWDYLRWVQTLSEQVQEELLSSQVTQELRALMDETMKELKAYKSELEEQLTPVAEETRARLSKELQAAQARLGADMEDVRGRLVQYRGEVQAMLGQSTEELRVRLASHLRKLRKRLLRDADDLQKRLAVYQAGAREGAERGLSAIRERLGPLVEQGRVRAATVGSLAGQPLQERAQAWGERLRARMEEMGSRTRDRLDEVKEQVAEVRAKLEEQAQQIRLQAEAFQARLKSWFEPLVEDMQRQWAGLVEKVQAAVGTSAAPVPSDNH
Experimental: (§2) Selectivity evaluation of recombinant antibodies by direct ELISA: The direct ELISA described below was used to evaluate the binding selectivity of the recombinant antibodies produced in Example 11.
as §1, with “(Tecan).” for “(Tecan). The optical density was plotted against the antibody concentration to generate concentration-response curves (FIG. 16).”

[4] = biological target: T1, A199 N-terminal neo-epitope peptide …; assay: as above
Experimental: as §2
as §1, with “(Tecan).” for “(Tecan). The optical density was plotted against the antibody concentration to generate concentration-response curves (FIG. 16).”

[5] = biological target: T2, L198 N-terminal neo-epitope peptide …; assay: as above
Experimental: as §2
as §1, with “(Tecan).” for “(Tecan). The optical density was plotted against the antibody concentration to generate concentration-response curves (FIG. 16).”

[6] = biological target: T3, negative control peptide …; assay: as above
Experimental: as §2
as §1, with “(Tecan).” for “(Tecan). The optical density was plotted against the antibody concentration to generate concentration-response curves (FIG. 16).”

[7] = biological target: T6, full-length ApoE in human brain extract from Alzheimer's disease patients (human, UniProt P02649 19-317); assay: Western blot of AD brain RIPA 2% SDS extract; recombinant antibody at 2 ug/ml as primary antibody
T6 construct: mature; Endogenous protein on Western blot or in solution (IP); also called ApoE full-length protein
T6 sequence (P02649 19-317): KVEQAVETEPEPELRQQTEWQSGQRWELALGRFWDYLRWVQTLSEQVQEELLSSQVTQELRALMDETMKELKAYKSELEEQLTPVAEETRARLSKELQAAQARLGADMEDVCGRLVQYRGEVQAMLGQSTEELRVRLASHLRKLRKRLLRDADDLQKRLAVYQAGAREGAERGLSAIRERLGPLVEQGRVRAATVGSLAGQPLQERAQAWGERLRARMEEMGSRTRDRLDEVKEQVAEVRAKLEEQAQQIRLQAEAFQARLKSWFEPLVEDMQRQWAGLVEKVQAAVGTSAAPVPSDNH

Binder | EC50 [1] | Kd [2] | binding result [3] | binding result [4] | binding result [5] | binding result [6] | binding result [7]
4E6, recombinant IgG2c antibody (antibody, V domains shown, also called recombinant anti-G200 antibody 4E6) VH: EVQLVESGGDLVKPGGSLKLSCAASGFTFSSYAMSWVRQSPEKRLEWVAEISGSGSRDHYTDSVTGRFTVSRDNAKNTLYLEMSSLRSEDTAIYYCARQLTGTDYYGTDYWGQGTSVTVSS VL: DVLMTQIPLSLPVSLGDQASISCRSSQSIVYSNGNTYLEWYLQRPGQSPKLLIYKVSNRFSGVPDRFSGSGSGTDFTLKISRVEAEDLGVYYCFQGSHLPYTFGGGTKLEIK | 0.0095 µg/mL | – | no binding (tested: 500 ng/ml) | no binding (tested: 500 ng/ml) | no binding (tested: 500 ng/ml) | no binding (tested: 500 ng/ml) | no binding (tested: 2 ug/ml (text))
28F2, recombinant IgG2c antibody (antibody, V domains shown) VH: QIQLVQSGPDLKKPGETVKISCKASGYTFTNYAMHWMKQAPGKALKWMGWINTYTGEPTFADDFKGRFAFSLETSASTAYLQINSLKNEDMATYFCAREGYYDRSHYFDYWGQGTTLTVSS VL: DVLMTQTPLSLPVSLGDQASISCRSSLSLVHGDGNTYLEWYLQKPGQSPKLLIYKVSNRFSGVPDRFSGSGSGTDFTLKISRVEAEDLGVYYCLQGSHIPFTFGSGTKLEIK | 0.0215 µg/mL | 9830 nM | no binding (tested: 500 ng/ml) | – | no binding (tested: 500 ng/ml) | no binding (tested: 500 ng/ml) | no binding (tested: 2 ug/ml (text))
7B10, recombinant IgG2c antibody (antibody, V domains shown, also called 7610) VH: AVQLVESGGGLVKPGRSLKLSCAASGFTFSSYAMSWVRQFPDKRLDWVAEISSGGGSTNYLDTVTGRFTISRDNAKNTLYLEMNSLRSEDTAMYYCARQLVGTDYYGTDYWGQGTSVTVSS VL: DVLMTQTPLSLPVSLGDQASISCRSSQNIVYSNGNTYLEWYLQKPGQSPKLLIYKVSNRFSGVPDRFSGSGSGTDFTLKISRVEAEDLGVYYCFQGSHVPYTFGGGTKLEIK | 0.0107 µg/mL | 330 nM | no binding (tested: 500 ng/ml) | no binding (tested: 500 ng/ml) | no binding (tested: 500 ng/ml) | no binding (tested: 500 ng/ml) | no binding (tested: 2 ug/ml (text))
7C7, recombinant IgG2c antibody (antibody, V domains shown) VH: EVQLVESGGGLVKPGGSLRLSCAASGFTFSSFAMSWVRQSPERRLEWVAEISRGGGYAFYSDTVTGRFTISRDNARNTLFLEMGSLRSEDTAMYYCSRQLTGTDYYAMDYWGQGTSVTVSS VL: DVLLTQTPLSLFVSLGDQASISCRSSQSIVYTNGNTYLEWYLQKPGQSPKLLIYKVSNRFSGVPDRFSGSGSGTDFTLKISRVEAEDLGVYYCFQGSQVPYTFGGGTKLELK | 0.0181 µg/mL | 417 nM | – | no binding (tested: 500 ng/ml) | no binding (tested: 500 ng/ml) | no binding (tested: 500 ng/ml) | no binding (tested: 2 ug/ml (text))

Continued by falling Kd [2], values first:

EC50 [1] | Kd [2] | binding result [3] | binding result [4] | binding result [5] | binding result [6] | binding result [7] | Binder
0.0101 µg/mL | 299 nM | no binding (tested: 500 ng/ml) | no binding (tested: 500 ng/ml) | no binding (tested: 500 ng/ml) | no binding (tested: 500 ng/ml) | no binding (tested: 2 ug/ml (text)) | 23D5, recombinant IgG2c antibody (antibody, V domains shown) VH: EVQLVESGGGLVKPGGSLKLSCSASGFTFSRYAMSWVRQSPEKRLEWVAEINSGGSYSFYSDTVTGRFTISRDNAKNTLFLEMSSLRSEDTAIYYCARQLSGTDYYGTDYWGQGTSVTVSS VL: DVLMTQTPLSLPVSHGDQASISCRSSQSLLYSNGNTYLEWYLQKPGQSPKLLIYKVSNRFSGVPDRFSGSGSGTDFTLKISRVEAEDLGVYYCFQGSHVPYTFGGGTKLEIK
0.0079 µg/mL | 141 nM | no binding (tested: 500 ng/ml) | no binding (tested: 500 ng/ml) | no binding (tested: 500 ng/ml) | no binding (tested: 500 ng/ml) | no binding (tested: 2 ug/ml (text)) | 17G4, recombinant IgG2c antibody (antibody, V domains shown) VH: EVQLVESGGGLVKPGGSLKLSCSASGFTFSRYAMSWVRQSPEKRLEWVAEINSGGSYSFYSDTVTGRFTISRDNAKNTLFLEMSSLRSEDTAIYYCARQLTGTDYYGTDYWGQGTSVTVSS VL: DVLMTQTPLSLPVSHGDQASISCRSSQSLLYSNGNTYLEWYLQKPGQSPKLLIYKVSNRFSGVPDRFSGSGSGTDFTLKISRVEAEDLGVYYCFQGSHVPYTFGGGTKLEIK
